Measured values from article PMC3201873.

Tests used:
[1] = target: full-length GyrB from M. tuberculosis (M. tuberculosis); experiment: far-Western, overlay or dot blot
[2] = target: GyrA–SBP (GyrA fused to a Streptavidin-Binding Peptide) (M. tuberculosis) (UniProt P9WG47); experiment: SPR

Sequence of full-length GyrB from M. tuberculosis (M. tuberculosis) (A5TY73 whole entry, the tested form may be a part): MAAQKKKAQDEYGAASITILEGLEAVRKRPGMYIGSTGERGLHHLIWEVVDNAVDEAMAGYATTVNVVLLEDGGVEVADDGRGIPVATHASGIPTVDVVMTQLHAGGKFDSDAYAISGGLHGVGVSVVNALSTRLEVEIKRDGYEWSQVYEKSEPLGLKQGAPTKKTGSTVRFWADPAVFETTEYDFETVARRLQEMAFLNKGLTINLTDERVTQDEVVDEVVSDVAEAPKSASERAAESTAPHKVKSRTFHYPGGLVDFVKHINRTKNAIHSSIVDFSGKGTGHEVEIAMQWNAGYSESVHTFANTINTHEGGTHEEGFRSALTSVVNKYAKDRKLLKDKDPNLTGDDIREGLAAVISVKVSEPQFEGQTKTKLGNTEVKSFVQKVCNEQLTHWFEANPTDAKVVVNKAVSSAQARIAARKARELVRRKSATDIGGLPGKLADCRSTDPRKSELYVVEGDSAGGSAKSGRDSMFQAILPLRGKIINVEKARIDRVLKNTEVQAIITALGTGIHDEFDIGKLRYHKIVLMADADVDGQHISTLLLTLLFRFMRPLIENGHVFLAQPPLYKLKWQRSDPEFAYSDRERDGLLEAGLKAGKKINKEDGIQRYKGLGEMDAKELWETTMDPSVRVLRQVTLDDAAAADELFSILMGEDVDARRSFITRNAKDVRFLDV

Substance | fold stronger with negatively supercoiled pBR322 than without DNA [1] [fold] | Ka [2] [M⁻¹] | koff [2] [s⁻¹]
GyrA–SBP (GyrA fused to a Streptavidin-Binding Peptide) (from UniProt P9WG47 1-838) (natural protein) | 9 |  | 
full-length GyrB from M. tuberculosis (natural protein) |  | 6.2e+07 | 0.00101
